In FireProtDB (doi:10.1021/bi00123a002):
“And” between values parts separate entries of the source, which are not always exact repeats. Equal entries are not always repeated.

B1: Tryptophan synthase alpha chain, P00929 (parent)
chain: MERYENLFAQLNDRREGAFVPFVTLGDPGIEQSLKIIDTLIDAGADALELGVPFSDPLADGPTIQNANLRAFAAGVTPAQCFEMLALIREKHPTIPIGLLMYANLVFNNGIDAFYARCEQVGVDSVLVADVPVEESAPFRQAALRHNIAPIFICPPNADDDLLRQVASYGRGYTYLLSRSGVTGAENRGALPLHHLIEKLKEYHAAPALQGFGISSPEQVSAAVRAGAAGAISGSAIVKIIEKNLASPKQMLAELRSFVSAMKAASRA

Variants of: B1
Settings: Salmonella typhimurium (strain LT2 / SGSC1412 / ATCC 700720), pH 7.8, 25 °C, Urea, CD, Potassium phosphate 10 mM, reversible: yes, structure 2WSY, whole UniProt chain shown

Variant | ddG of mutation (higher = less stable) | unfolding free energy | denaturant m value (transition: 3) | denaturant midpoint (higher = more stable) (transition: 3) | unfolding free energy (transition: 3) | ddG of mutation (higher = less stable) (transition: 3)
F22I | 4.58 kcal/mol | 8.58 kcal/mol | 1.57 kcal/mol/M and 1.51 kcal/mol/M | 2 M and 3.6 M | 3.16 kcal/mol and 5.43 kcal/mol | –
F22L | 1.05 kcal/mol | 12.1 kcal/mol | 2.96 kcal/mol/M and 1.7 kcal/mol/M | 2.1 M and 3.3 M | 6.38 kcal/mol and 5.73 kcal/mol | –
F22V | 3.44 kcal/mol | 9.72 kcal/mol | 1.74 kcal/mol/M | 3.3 M | 5.87 kcal/mol | -0.06 kcal/mol
